Molecular target: CA09 N1 sNAp (stabilized recombinant N1 neuraminidase head of H1N1 A/California/07/2009) (Influenza A virus H1N1 A/California/07/2009)
Experiment: cryo-EM structure

CA09 N1 sNAp (stabilized recombinant N1 neuraminidase head of H1N1 A/California/07/2009) (enzyme)
stoichiometry N: 4
